# Experimental data reported in patent publication US20110027291A1, “METHODS, SYSTEMS AND PRODUCTS FOR PREDICTING RESPONSE OF TUMOR CELLS TO A THERAPEUTIC AGENT AND TREATING A PATIENT ACCORDING TO THE PREDICTED RESPONSE” (MERRIMACK PHARMACEUTICALS, INC., priority 2008, published 2011).
# B1: Epigen (ligand, UniProt Q6UW88 24-104, looked up)
# chain: AVTVTPPITAQQGNWTVNKTEADNIEGPIALKFSHLCLEDHNSYCINGACAFHHELEKAICRCFTGYTGERCEHLTLTSYA
# B2: amphiregulin (ligand, UniProt P15514 101-198, looked up)
# chain: SVRVEQVVKPPQNKTESENTSDKPKRKKKGGKNGKNRRNRKKKNPCNAEFQNFCIHGECKYIEHLEAVTCKCQQEYFGERCGEKSMKTHSMIDSSLSK
# B3: heregulin HRG1-β (ligand, UniProt Q02297-6 177-241, looked up)
# chain: SHLVKCAEKEKTFCVNGGECFMVKDLSNPSRYLCKCPNEFTGDRCQNYVMASFYKHLGIEFMEAE
# Legend:
# [1] = test system: ErbB2 phosphorylation (pErbB2) in NCI-ADRr cells; assay: ErbB2 phosphorylation dose response curves for ErbB ligands (ELISA); assay type: cell-based
# Experimental: (§1) For stimulation of the cells, the cells are seeded in 100 μl complete media at 35,000 cells per well in 96 well tissue culture plates and incubated overnight in a humidified atmosphere of 5% CO2, 95% air and 37 degrees Celsius. Cells are then switched to serum free media: RPMI-1640 media (Gibco) supplemented with, 2 mM L-glutamine (Gibco) and units/mL Pen-Strep (Gibco). Starved cells are incubated in a humidified atmosphere of 5% CO2, 95% air and 37 degrees Celsius for 20-24 hours prior to stimulation.
# (§2) Levels of protein phosphorylation in the stimulated cells are measured by ELISA. Capture antibodies against ErbB1 (R&D Systems, AF231), ErbB2 (R&D Systems, MAB1129), ErbB3 (R&D Systems, MAB3481) and AKT (Upstate, 05-591MG) are incubated in 384 well black flat-bottom polystyrene high-binding plates (Corning, Catalog #3708) overnight at room temperature. The ELISA plates are blocked with 2% bovine serum albumin (BSA) and phosphate buffered saline (PBS) for one hour then incubated with lysates diluted in 2% BSA, 0.1% Tween-20 and PBS for two hours at room temp. In between each incubation, the plates are washed three times with 0.05% Tween-20 in PBS. ELISAs for measuring phospho-ErbB1, -ErbB2 and -ErbB3 are incubated with phospho-tyrosine horseradish peroxidase (HRP) linked monoclonal antibody (R&D Systems, HAM 1676) for two hours. ELISAs measuring phospho-AKT are incubated with primary serine 473 specific anti-phospho AKT mouse monoclonal antibody (Cell Signaling Technologies, Catalog #5102) for 2 hours, then incubated with Streptavidin-HRP(R&D Systems, Catalog #DY998) for 30 minutes. All ELISAs are visualized with SuperSignal ELISA Pico Chemiluminescent Substrate (Pierce, Catalog #37069) and luminescent signal is measured using a luminometer.
# [2] = test system: ErbB3 phosphorylation (pErbB3) in NCI-ADRr cells; assay: ErbB3 phosphorylation dose response curves for ErbB ligands (ELISA); assay type: cell-based
# Experimental: as §1, §2
# [3] = biological target: T1, ErbB1 phosphorylation (pErbB1) in NCI-ADRr cells (Homo sapiens, UniProt P00533); assay: ErbB1 phosphorylation dose response curves for ErbB ligands (ELISA); assay type: cell-based
# T1 construct: endogenous in cells; host or cells: NCI-ADRr (ADRr) cells
# Experimental: as §1, §2
# [4] = test system: AKT phosphorylation (pAKT) in NCI-ADRr cells; assay: AKT phosphorylation dose response curves for ErbB ligands (ELISA); assay type: cell-based; conditions: 5 min
# Experimental: as §1, §2
# ErbB1 on NCI-ADRr cells = ErbB1 on NCI-ADRr cells (UniProt P00533); assay: cell-based or functional assay
# ErbB3 on NCI-ADRr cells = ErbB3 on NCI-ADRr cells (UniProt P21860); assay: cell-based or functional assay
Molecule,pErbB2 % stimulation at 5 min relative to maximum [1],pErbB3 % stimulation at 5 min relative to maximum [2],EC50 [3],pErbB1 % stimulation at 5 min relative to maximum [3],pAKT % stimulation at 5 min relative to maximum [4],"EC50 [nM] of pErbB1 dose response, NCI-ADRr cells (ErbB1 on NCI-ADRr cells)","pAKT, % stimulation at 5 min relative to maximum, NCI-ADRr cells (ErbB1 on NCI-ADRr cells)","pErbB1, % stimulation at 5 min relative to maximum, NCI-ADRr cells (ErbB1 on NCI-ADRr cells)","pErbB2, % stimulation at 5 min relative to maximum, NCI-ADRr cells (ErbB1 on NCI-ADRr cells)","pErbB3, % stimulation at 5 min relative to maximum, NCI-ADRr cells (ErbB1 on NCI-ADRr cells)",other results
"AR: amphiregulin, ErbB1 binding ligand",54.0%,17.0%,37 nM,95.0%,28.0%,–,–,–,–,–,EC50 [2]: 380 nM
"Epiregulin: epiregulin, ErbB ligand",18.0%,–,–,9.0%,11.0%,–,–,–,–,–,–
"HB-EGF: heparin-binding epidermal growth factor, ErbB ligand",94.0%,32.0%,21 nM,87.0%,20.0%,–,–,–,–,–,EC50 [1]: 230 nM
"TGFα: transforming growth factor alpha, ErbB1 binding ligand",–,–,30 nM,–,–,–,–,–,–,–,–
betacellulin (from UniProt P35070 32-111) (ligand),–,–,–,–,–,5.7 nM,–,–,–,–,"EC50 [nM] of pErbB3 dose response, NCI-ADRr cells (ErbB1 on NCI-ADRr cells): 100 nM"
heparin-binding epidermal growth factor (from UniProt Q99075 63-148) (ligand),–,–,–,–,–,21 nM,20%,87%,94%,32%,"EC50 [nM] of pErbB2 dose response, NCI-ADRr cells (ErbB1 on NCI-ADRr cells): 230 nM"
transforming growth factor alpha (from UniProt P01135 40-89) (ligand),–,–,–,–,–,30 nM,–,–,–,–,–
B1,25.0%,3.0%,–,12.0%,11.0%,–,11%,12%,25%,3%,–
B2,–,–,–,–,–,37 nM,28%,95%,54%,17%,"EC50 [nM] of pErbB3 dose response, NCI-ADRr cells (ErbB1 on NCI-ADRr cells): 380 nM"
B3,–,–,–,–,–,–,–,–,–,–,"EC50 [nM] of pAKT dose response, NCI-ADRr cells (ErbB3 on NCI-ADRr cells): 1.9 nM; EC50 [nM] of pErbB2 dose response, NCI-ADRr cells (ErbB3 on NCI-ADRr cells): 7 nM; EC50 [nM] of pErbB3 dose response, NCI-ADRr cells (ErbB3 on NCI-ADRr cells): 9.9 nM; pAKT, % stimulation at 5 min relative to maximum, NCI-ADRr cells (ErbB3 on NCI-ADRr cells): 100%; pErbB1, % stimulation at 5 min relative to maximum, NCI-ADRr cells (ErbB3 on NCI-ADRr cells): 0%; pErbB2, % stimulation at 5 min relative to maximum, NCI-ADRr cells (ErbB3 on NCI-ADRr cells): 43%; pErbB3, % stimulation at 5 min relative to maximum, NCI-ADRr cells (ErbB3 on NCI-ADRr cells): 100%"
